What all share (experiment): purified protein
Common to all, as to conditions: 0.04 M Britton-Robinson buffer, pH 7.0, 60°C

For one series, the system named is COc1ccccc1O. The format is biochemical, uncultured bacterium.
For series [1], the system named is COc1cc(C=NN=Cc2cc(OC)c(O)c(OC)c2)cc(OC)c1O.
Another series has as its system Oc1ccccc1O.

With Lac1326 (uncultured bacterium), in the series with COc1ccccc1O, the Km came to 4900 µM, the kcat is 1.34 s⁻¹ and the kcat/Km came to 270 M⁻¹ s⁻¹. In addition, in series [1], the Km stood at 831 µM, the kcat worked out at 24.1 s⁻¹ and the kcat/Km is 29000 M⁻¹ s⁻¹. In addition, in the series on Oc1ccccc1O, the Km came out at 507 µM and the kcat/Km was 28000 M⁻¹ s⁻¹.

For orientation: Km means the substrate concentration at which the rate is half of its maximum. As a reminder, the kcat is the maximal rate divided by the concentration of active sites. As usually defined, the kcat/Km is the second-order rate constant that governs catalysis at low substrate concentration.

The values above are taken from publication PMC6290062, “Characterization of a Novel, Cold-Adapted, and Thermostable Laccase-Like Enzyme With High Tolerance for Organic Solvents and Salt and Potent Dye Decolorization Ability, Derived From a Marine Metagenomic Library” (Frontiers in Microbiology, 2018).
